Article PMC6613617, “Human DNA polymerase delta requires an iron–sulfur cluster for high-fidelity DNA synthesis”

Experiments:
[1] = molecular target: T1, POLD1-HY;POLD2;POLD3;POLD4 (Homo sapiens;Homo sapiens;Homo …, UniProt P28340;P49005;Q15054;Q9HCU8 1-1107;1-469;1-466;1-107, H1066Y|||); assay: EMSA; without PCNA; EMSA: 20 mM Tris-HCl pH 8.0, 20 mM KCl, 1 mM EDTA, 0.5 mM TCEP, 20 nM probe, 10-80 nM Pol delta, 25 C 30 min; 7% native PAGE, 0.5x TBE; settings: protein: recombinant;recombinant;recombinant;recombinant; copies: 1;1;1;1; label: 5'-fluorescein (FAM) on strand 1; 5' overhang 16 nt on template strand 2; one unpaired A in strand 2 as printed
T1 sequence (P28340 whole entry H1066Y, chain 1 of 4): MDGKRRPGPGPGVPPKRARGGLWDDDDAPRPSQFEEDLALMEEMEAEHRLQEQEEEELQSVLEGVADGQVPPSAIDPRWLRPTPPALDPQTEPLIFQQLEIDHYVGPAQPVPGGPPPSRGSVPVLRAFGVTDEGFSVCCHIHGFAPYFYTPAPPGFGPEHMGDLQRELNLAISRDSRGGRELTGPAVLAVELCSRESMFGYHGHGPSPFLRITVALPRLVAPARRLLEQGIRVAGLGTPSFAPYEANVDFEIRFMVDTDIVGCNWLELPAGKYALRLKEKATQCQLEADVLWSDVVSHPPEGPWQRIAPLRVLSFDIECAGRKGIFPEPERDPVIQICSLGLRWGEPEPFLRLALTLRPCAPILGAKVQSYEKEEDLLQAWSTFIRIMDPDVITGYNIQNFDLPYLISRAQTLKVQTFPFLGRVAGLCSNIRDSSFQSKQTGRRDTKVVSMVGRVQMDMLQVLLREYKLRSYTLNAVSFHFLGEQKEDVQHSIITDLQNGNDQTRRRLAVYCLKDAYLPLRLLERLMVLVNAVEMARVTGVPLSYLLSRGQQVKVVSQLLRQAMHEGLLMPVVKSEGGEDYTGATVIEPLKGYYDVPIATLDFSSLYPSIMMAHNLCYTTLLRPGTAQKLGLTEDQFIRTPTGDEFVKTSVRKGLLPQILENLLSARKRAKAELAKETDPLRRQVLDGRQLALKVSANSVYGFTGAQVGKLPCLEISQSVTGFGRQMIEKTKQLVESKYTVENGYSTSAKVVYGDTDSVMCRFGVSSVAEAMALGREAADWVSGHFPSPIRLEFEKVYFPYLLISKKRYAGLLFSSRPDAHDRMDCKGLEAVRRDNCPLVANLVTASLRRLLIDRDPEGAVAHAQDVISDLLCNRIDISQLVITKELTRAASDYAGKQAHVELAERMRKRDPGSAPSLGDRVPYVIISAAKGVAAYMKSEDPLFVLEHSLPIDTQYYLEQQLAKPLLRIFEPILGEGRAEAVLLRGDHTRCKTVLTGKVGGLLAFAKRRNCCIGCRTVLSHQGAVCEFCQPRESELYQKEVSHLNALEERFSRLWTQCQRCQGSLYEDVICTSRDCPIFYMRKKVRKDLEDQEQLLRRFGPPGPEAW
T1 sequence (P49005 whole entry, chain 2 of 4): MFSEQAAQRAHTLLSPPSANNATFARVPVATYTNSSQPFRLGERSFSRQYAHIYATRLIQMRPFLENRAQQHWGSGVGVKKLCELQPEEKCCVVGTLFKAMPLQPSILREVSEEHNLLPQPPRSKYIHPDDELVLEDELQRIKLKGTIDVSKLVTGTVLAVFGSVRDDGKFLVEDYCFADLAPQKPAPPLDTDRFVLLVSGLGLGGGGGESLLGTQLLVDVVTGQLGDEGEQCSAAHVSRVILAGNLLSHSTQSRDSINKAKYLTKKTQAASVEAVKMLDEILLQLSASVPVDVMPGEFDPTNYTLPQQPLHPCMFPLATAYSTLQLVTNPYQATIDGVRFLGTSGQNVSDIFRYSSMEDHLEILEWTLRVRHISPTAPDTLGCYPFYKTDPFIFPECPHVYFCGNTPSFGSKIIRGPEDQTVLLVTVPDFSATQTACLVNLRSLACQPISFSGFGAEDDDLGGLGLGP
T1 sequence (Q15054 whole entry, chain 3 of 4): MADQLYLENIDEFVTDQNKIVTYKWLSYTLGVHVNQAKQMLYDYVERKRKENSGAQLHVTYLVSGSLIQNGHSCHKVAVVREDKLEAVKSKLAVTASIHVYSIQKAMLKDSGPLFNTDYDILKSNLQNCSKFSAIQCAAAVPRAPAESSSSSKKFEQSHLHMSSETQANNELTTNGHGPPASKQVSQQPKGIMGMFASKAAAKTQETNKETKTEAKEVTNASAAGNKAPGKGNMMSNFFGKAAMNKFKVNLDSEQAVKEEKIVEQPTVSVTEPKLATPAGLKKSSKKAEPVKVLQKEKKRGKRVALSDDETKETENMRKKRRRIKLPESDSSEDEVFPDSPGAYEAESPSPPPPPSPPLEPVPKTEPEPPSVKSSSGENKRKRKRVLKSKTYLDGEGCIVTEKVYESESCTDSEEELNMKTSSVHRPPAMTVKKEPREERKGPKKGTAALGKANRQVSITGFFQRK
T1 sequence (Q9HCU8 whole entry, chain 4 of 4): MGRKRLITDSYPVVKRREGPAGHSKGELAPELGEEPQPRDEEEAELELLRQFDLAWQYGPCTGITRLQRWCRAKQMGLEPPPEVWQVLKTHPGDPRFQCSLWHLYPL

[2] = molecular target: T2, POLD1-HW;POLD2;POLD3;POLD4 (Homo sapiens;Homo sapiens;Homo …, UniProt P28340;P49005;Q15054;Q9HCU8 1-1107;1-469;1-466;1-107, H1066W|||); assay: as above; settings: protein: recombinant;recombinant;recombinant;recombinant; copies: 1;1;1;1; label: 5'-fluorescein (FAM) on strand 1; 5' overhang 16 nt on template strand 2; one unpaired A in strand 2 as printed
T2 sequence (P28340 whole entry H1066W, chain 1 of 4): as the sequence (P28340 whole entry H1066Y, chain 1 of 4) above, with Y1066W counted along it
T2 sequence (P49005 whole entry, chain 2 of 4): as the sequence (P49005 whole entry, chain 2 of 4) above
T2 sequence (Q15054 whole entry, chain 3 of 4): as the sequence (Q15054 whole entry, chain 3 of 4) above
T2 sequence (Q9HCU8 whole entry, chain 4 of 4): as the sequence (Q9HCU8 whole entry, chain 4 of 4) above

[3] = molecular target: POLD1 WT (catalytic subunit of Pol delta);POLD2;POLD3;POLD4 (Homo sapiens;Homo sapiens;Homo …, UniProt P28340;P49005;Q15054;Q9HCU8 1-1107;1-469;1-466;1-107, |||); assay: as above; settings: protein: recombinant;recombinant;recombinant;recombinant; copies: 1;1;1;1; label: 5'-fluorescein (FAM) on strand 1; 5' overhang 16 nt on template strand 2; one unpaired A in strand 2 as printed
POLD1 WT (catalytic subunit of Pol delta);POLD2;POLD3;POLD4, sequence (P28340 whole entry, stated change not applied, chain 1 of 4): as the sequence (P28340 whole entry H1066Y, chain 1 of 4) above, with Y1066H counted along it
POLD1 WT (catalytic subunit of Pol delta);POLD2;POLD3;POLD4, sequence (P49005 whole entry, stated change not applied, chain 2 of 4): as the sequence (P49005 whole entry, chain 2 of 4) above
POLD1 WT (catalytic subunit of Pol delta);POLD2;POLD3;POLD4, sequence (Q15054 whole entry, stated change not applied, chain 3 of 4): as the sequence (Q15054 whole entry, chain 3 of 4) above
POLD1 WT (catalytic subunit of Pol delta);POLD2;POLD3;POLD4, sequence (Q9HCU8 whole entry, stated change not applied, chain 4 of 4): as the sequence (Q9HCU8 whole entry, chain 4 of 4) above

[4] = molecular target: POLD1-HW;POLD2;POLD3;POLD4;PCNA (Homo sapiens;Homo sapiens;Homo …, UniProt P28340;P49005;Q15054;Q9HCU8;P12004 1-1107;1-469;1-466;1-107;1-261, H1066W||||); assay: EMSA; copurified with PCNA; EMSA: 20 mM Tris-HCl pH 8.0, 20 mM KCl, 1 mM EDTA, 0.5 mM TCEP, 20 nM probe, 10-80 nM Pol delta, 25 C 30 min; 7% native PAGE, 0.5x TBE; settings: protein: recombinant;recombinant;recombinant;recombinant;recombinant; copies: 1;1;1;1;3; label: 5'-fluorescein (FAM) on strand 1; 5' overhang 16 nt on template strand 2; one unpaired A in strand 2 as printed
[5] = molecular target: POLD1 WT (catalytic subunit of Pol delta);POLD2;POLD3;POLD4;PCNA (Homo sapiens;Homo sapiens;Homo …, UniProt P28340;P49005;Q15054;Q9HCU8;P12004 1-1107;1-469;1-466;1-107;1-261, ||||); assay: as above; settings: protein: recombinant;recombinant;recombinant;recombinant;recombinant; copies: 1;1;1;1;3; label: 5'-fluorescein (FAM) on strand 1; 5' overhang 16 nt on template strand 2; one unpaired A in strand 2 as printed
[6] = molecular target: POLD1-HY;POLD2;POLD3;POLD4;PCNA (Homo sapiens;Homo sapiens;Homo …, UniProt P28340;P49005;Q15054;Q9HCU8;P12004 1-1107;1-469;1-466;1-107;1-261, H1066Y||||); assay: as above; settings: protein: recombinant;recombinant;recombinant;recombinant;recombinant; copies: 1;1;1;1;3; label: 5'-fluorescein (FAM) on strand 1; 5' overhang 16 nt on template strand 2; one unpaired A in strand 2 as printed
[7] = molecular target: T3, POLD1-CS;POLD2;POLD3;POLD4 (Homo sapiens;Homo sapiens;Homo …, UniProt P28340;P49005;Q15054;Q9HCU8 1-1107;1-469;1-466;1-107, C1076S|||); assay: EMSA; without PCNA; less second (super-shifted) band than WT; EMSA: 20 mM Tris-HCl pH 8.0, 20 mM KCl, 1 mM EDTA, 0.5 mM TCEP, 20 nM probe, 10-80 nM Pol delta, 25 C 30 min; 7% native PAGE, 0.5x TBE; settings: protein: recombinant;recombinant;recombinant;recombinant; copies: 1;1;1;1; label: 5'-fluorescein (FAM) on strand 1; 5' overhang 16 nt on template strand 2; one unpaired A in strand 2 as printed
T3 sequence (P28340 whole entry C1076S, chain 1 of 4): as the sequence (P28340 whole entry H1066Y, chain 1 of 4) above, with Y1066H, C1076S counted along it
T3 sequence (P49005 whole entry, chain 2 of 4): as the sequence (P49005 whole entry, chain 2 of 4) above
T3 sequence (Q15054 whole entry, chain 3 of 4): as the sequence (Q15054 whole entry, chain 3 of 4) above
T3 sequence (Q9HCU8 whole entry, chain 4 of 4): as the sequence (Q9HCU8 whole entry, chain 4 of 4) above

[8] = molecular target: T4, POLD1-CS;POLD2;POLD3;POLD4;PCNA (Homo sapiens;Homo sapiens;Homo …, UniProt P28340;P49005;Q15054;Q9HCU8;P12004 1-1107;1-469;1-466;1-107;1-261, C1076S||||); assay: EMSA; copurified with PCNA; less second (super-shifted) band than WT; EMSA: 20 mM Tris-HCl pH 8.0, 20 mM KCl, 1 mM EDTA, 0.5 mM TCEP, 20 nM probe, 10-80 nM Pol delta, 25 C 30 min; 7% native PAGE, 0.5x TBE; settings: protein: recombinant;recombinant;recombinant;recombinant;recombinant; copies: 1;1;1;1;3; label: 5'-fluorescein (FAM) on strand 1; 5' overhang 16 nt on template strand 2; one unpaired A in strand 2 as printed
[9] = molecular target: T1, POLD1-HY;POLD2;POLD3;POLD4; assay: EMSA; without PCNA; not impaired; EMSA: 20 mM Tris-HCl pH 8.0, 20 mM KCl, 1 mM EDTA, 0.5 mM TCEP, 20 nM probe, 10-80 nM Pol delta, 25 C 30 min; 7% native PAGE, 0.5x TBE; settings: protein: recombinant;recombinant;recombinant;recombinant; copies: 1;1;1;1; label: 5'-fluorescein (FAM) on strand 1; blunt; one unpaired A in strand 2 as printed
[10] = molecular target: T2, POLD1-HW;POLD2;POLD3;POLD4; assay: as above; settings: protein: recombinant;recombinant;recombinant;recombinant; copies: 1;1;1;1; label: 5'-fluorescein (FAM) on strand 1; blunt; one unpaired A in strand 2 as printed
[11] = molecular target: T4, POLD1-CS;POLD2;POLD3;POLD4;PCNA; assay: EMSA; copurified with PCNA; defect alleviated; EMSA: 20 mM Tris-HCl pH 8.0, 20 mM KCl, 1 mM EDTA, 0.5 mM TCEP, 20 nM probe, 10-80 nM Pol delta, 25 C 30 min; 7% native PAGE, 0.5x TBE; settings: protein: recombinant;recombinant;recombinant;recombinant;recombinant; copies: 1;1;1;1;3; label: 5'-fluorescein (FAM) on strand 1; blunt; one unpaired A in strand 2 as printed
[12] = molecular target: T3, POLD1-CS;POLD2;POLD3;POLD4; assay: EMSA; without PCNA; no defect; EMSA: 20 mM Tris-HCl pH 8.0, 20 mM KCl, 1 mM EDTA, 0.5 mM TCEP, 20 nM probe, 10-80 nM Pol delta, 25 C 30 min; 7% native PAGE, 0.5x TBE; settings: protein: recombinant;recombinant;recombinant;recombinant; copies: 1;1;1;1; label: 5'-fluorescein (FAM); single strand
[13] = molecular target: T4, POLD1-CS;POLD2;POLD3;POLD4;PCNA; assay: EMSA; copurified with PCNA; no defect; EMSA: 20 mM Tris-HCl pH 8.0, 20 mM KCl, 1 mM EDTA, 0.5 mM TCEP, 20 nM probe, 10-80 nM Pol delta, 25 C 30 min; 7% native PAGE, 0.5x TBE; settings: protein: recombinant;recombinant;recombinant;recombinant;recombinant; copies: 1;1;1;1;3; label: 5'-fluorescein (FAM); single strand

Measured: binding result

B1: primer-template (Fig 3A,B) (mixed)
DNA 1: GTTTCTTCAATCTTCATCATACAGGTCAG
DNA 2: CTCGTCAGCATCTCGTCTGACCTGTATGATGAAGATTGAAAGAAAC
not listed: [9] | [10] | [11] | [12] | [13]
binds: all other assays above

B2: dsDNA probe (Fig 3C,D) (dsDNA)
DNA 1: GTTTCTTCAATCTTCATCATACAGGTCAG
DNA 2: CTGACCTGTATGATGAAGATTGAAAGAAAC
binds: [9] | [10] | [11]

GTTTCTTCAATCTTCATCATACAGGTCAG (ssDNA) [ssDNA probe (Fig 3E,F)]
binds: [12] | [13]
